Test [1] addresses T1, recombinant human KAAG1 (purified protein) (human, UniProt Q9UBP8 1-84, limits assumed).
T1 construct: also called gel filtration purified KAAG1
T1 sequence: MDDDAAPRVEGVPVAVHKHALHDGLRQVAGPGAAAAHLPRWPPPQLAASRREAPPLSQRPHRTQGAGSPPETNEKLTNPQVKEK
As to the kind of experiment: surface plasmon resonance (told in the summary). In general terms: In SPR one partner is held on a chip, and binding of the other changes the refractive index at the surface.

Test [2] addresses T1, recombinant human KAAG1 (purified …). The test can be described thus: SPR as above; KD relative to LcHc. As to the method:
Immediately after the activation, a 13 μg/mL solution of anti-human IgG Fc fragment specific in 10 mM NaOAc pH 4.5 was injected in the analyte direction at a flow rate of 25 μL/min until approximately 8000 resonance units (RUs) were immobilized. Remaining active groups were quenched by a 300 s injection of 1M ethanolamine at 30 μL/min in the analyte direction, and this also ensures mock-activated interspots are created for blank referencing. The screening of the 3A4 variants for binding to KAAG1 occurred in two steps: an indirect capture of 3A4 variants from cell supernatant onto the anti-human IgG Fc fragment specific surface in the ligand direction (vertical) followed by a KAAG1 injection in the analyte direction. Firstly, one buffer injection for 30 s at 100 uL/min in the ligand direction was used to stabilize the baseline. […] Four to five 3A4 variants along with wild-type 3A4 were simultaneously injected in individual ligand channels for 240 s at flow 25 μL/min. […] The first ligand channel was left empty to use as a blank control if required. This 3A4 capture step was immediately followed by two buffer injections in the analyte direction to stabilize the baseline, and then the gel filtration purified KAAG1 was injected. For a typical screen, five KAAG1 concentrations (8, 2.66, 0.89, 0.29, and 0.098 nM) and buffer control were simultaneously injected in individual analyte channels at 50 μL/min for 120 s with a 600 s dissociation phase, resulting in a set of binding sensorgrams with a buffer reference for each of the captured 3A4 variants. The anti-human IgG Fc fragment specific—3A4 complexes were regenerated by a 18 s pulse of 0.85% phosphoric acid for 18 s at 100 μL/min to prepare the anti-human IgG Fc fragment specific surface for the next injection cycle.
(§1) Sensorgrams were aligned and double-referenced using the buffer blank injection and interspots, and the resulting sensorgrams were analyzed using ProteOn Manager software v3.0.

Test [3] shares this target. As to the kind of experiment: SPR (ProteOn XPR36). The method, then:
(§2) Remaining active groups were quenched by a 300 s injection of 1M ethanolamine at 30 μL/min in the analyte direction, and this also ensures mock-activated interspots are created for blank referencing. The screening of the 3A4 variants for binding to KAAG1 occurred in two steps: an indirect capture of 3A4 variants from cell supernatant onto the anti-human IgG Fc fragment specific surface in the ligand direction (vertical) followed by a KAAG1 injection in the analyte direction. Firstly, one buffer injection for 30 s at 100 uL/min in the ligand direction was used to stabilize the baseline. […] Four to five 3A4 variants along with wild-type 3A4 were simultaneously injected in individual ligand channels for 240 s at flow 25 μL/min. […] The first ligand channel was left empty to use as a blank control if required. […]
Sensorgrams were aligned and double-referenced using the buffer blank injection and interspots, and the resulting sensorgrams were analyzed using ProteOn Manager software v3.0. The kinetic and affinity values were determined by fitting the referenced sensorgrams to the 1:1 Langmuir binding model using local Rₘₐₓ, and affinity constants (KD M) were derived from the resulting rate constants (kd s⁻¹/kₐ M⁻¹s⁻¹).

The target is the same in test [4]. The test can be described thus: SPR (ProteOn XPR36), antibody captured on anti-human IgG Fc, KAAG1 as analyte, 25 C; parent LcHc (chimeric 3A4). The method, then: as §2, with “Immediately after the activation, a 13 μg/mL solution of anti-human IgG Fc fragment specific in 10 mM NaOAc pH 4.5 was injected in the analyte direction at a flow rate of 25 μL/min until approximately 8000 resonance units (RUs) were immobilized. Remaining” for “Remaining”
as §1

For test [5], the target named is T2, Fc-KAAG1 truncated mutant ending at amino acid 60 of KAAG1 (human, UniProt Q9UBP8 1-60, biotinylated).
T2 construct: also called KAAG1 truncated Fc-fusion (1-60); not shown: Fc part from vector pYD5
T2 sequence: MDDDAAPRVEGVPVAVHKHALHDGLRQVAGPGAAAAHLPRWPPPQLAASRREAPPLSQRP
As to the kind of experiment: ELISA: biotinylated Fc-KAAG1 1-60 on streptavidin plate, OD450. The method, then: (§3) The expression and purification of human recombinant KAAG1 as an Fc fusion protein is found in PCT/CA2009/001586. To carry out the binding of Fc-KAAG1 to the antibody preparation, the Fc-KAAG1 was biotinylated with NHS-biotin (Pierce, Rockford, Ill.) and 10 ng/well was coated in a streptavidin 96-well plate for 1 h at room temperature. Purified chimeric 3A4 was added at increasing concentrations and incubated at room temperature for 30 minutes. Bound antibody was detected with HRP-conjugated human anti-kappa light chain antibody in the presence of TMB liquid substrate (Sigma-Aldrich Canada Ltd., Oakville, ON) and readings were conducted at 450 nm in microtiter plate reader. […] When the control unrelated IgG was incubated with the recombinant KAAG1, no binding activity was observed, even at the very highest concentration. […] The binding of 3A4 was compared to the binding of the chimeric 3D3 (described in Tremblay and Filion (2009)), that has different epitope specificity (see Example 2). The binding activity of 3A4 is very similar to 3D3 in this type of assay (see FIG. 1).
(§4) Based on the teachings of Tremblay and Filion (2009), it was known that other antibodies interacted with specific regions of recombinant KAAG1. Thus, anti-KAAG1 antibody 3C4, 3D3, and 3G10 interacted with the regions 1-35, 36-60, and 61-84 of KAAG1, respectively. […]

Test [6] has as its target T3, KAAG1 on the surface of cancer cells (SKOV-3, TOV-21G ovarian cancer cells) (human, UniProt Q9UBP8 31-84).
T3 construct: endogenous KAAG1 of human cancer cell lines; Also used for the Triton X-100 permeabilized SKOV-3 cells (named in the assay field); also called KAAG1 antigen; cell surface KAAG1
T3 sequence: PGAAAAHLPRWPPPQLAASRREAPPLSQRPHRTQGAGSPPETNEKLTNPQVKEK
As to the kind of experiment: flow cytometry on KAAG1-expressing cancer cells (told in the summary). (In flow cytometry, cells or beads pass a laser one at a time.)

For test [7], the target named is T4, Fc-KAAG1 truncated mutant ending at amino acid 35 of KAAG1 (human, not fully specified; biotinylated).
T4 construct: also called KAAG1 truncated Fc-fusion (1-35); not shown: Fc part from vector pYD5
T4 chain: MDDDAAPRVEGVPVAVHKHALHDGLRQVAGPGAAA
As to the kind of experiment: ELISA: biotinylated Fc-KAAG1 1-35 on streptavidin plate, OD450. As to the method:
as §3, §4

Test [8] concerns the target T1, recombinant human KAAG1 (purified …). As to the kind of experiment: surface plasmon resonance (told in the summary); summary statement; form of 3A4 and SPR set-up not stated.

Where a chain is given by its changes, count along the chain named. Where only a bound is given, the exact number is not on record here.

Consider 11 molecules from patent US20210054067A1 (ALETHIA BIOTHERAPEUTICS, published 2021).

B1: 3D3 anti-KAAG1 antibody (chimeric 3D3) (antibody, V domains shown)
VH: EVQLQQSVAELVRPGASVTLSCKASGYIFTDYEIHWVKQTPVHGLEWIGVIDPETGNTAFNQKFKGKATLTADISSSTAYMELSSLTSEDSAVYYCMGYSDYWGQGTTLTVSS
VL: DIVMTQSPSSLAVSIGQKVTMNCKSSQSLLNSNFQKNFLAWYQQKPGQSPKLLIYFASTRESSIPDRFIGSGSGTDFTLTISSVQAEDLADYFCQQHYSTPLTFGAGTKLELK
Broadly, the Kd is the concentration at which binding is half-saturated. Regarding B1, in test [1], the Kd is greater than 200000 pM and the “fold lower affinity than 3A4” value is 20 fold.

B2: humanized 3A4 antibody Lh1Hh2 (antibody, human IgG1, kappa, V domains shown)
VH: QIQLVQSGAEVKKPGASVKVSCKASGYTFTDDYMSWVRQAPGQGLEWMGDINPYNGDTNYNQKFKGRVTITADKSTSTAYMELSSLRSEDTAVYYCARDPGAMDYWGQGTLVTVSS
VL: DIVMTQTPLSLPVTPGEPASISCRSSQSLLHSNGNTYLEWYLQKPGQSPQLLIYTVSNRFSGVPDRFSGSGSGTDFTLKISRVEAEDVGVYYCFQGSHVPLTFGQGTKLEIKR
notes: human IgG1 kappa
B2: the Fold diff. in test [2] amounted to 13.2 fold.

B3: humanized 3A4 antibody Lh2Hh4 (antibody, human IgG1, kappa, V domains shown)
VH: B2 VH with R38K, M48I, R67K, V68A, I70L, A72V
VL: B2 VL with I2V, Q50K
notes: human IgG1 kappa; 10 mouse framework residues retained; also called H4L2
B3: the Fold diff. in test [2] was 6.4 fold.

B4: humanized 3A4 antibody Lh1Hh4 (antibody, human IgG1, kappa, V domains shown)
VH: B2 VH with R38K, M48I, R67K, V68A, I70L, A72V
VL: B2 VL
notes: human IgG1 kappa
As for B4, in test [2], the Fold diff. turned out to be 9.3 fold.

B5: humanized 3A4 antibody Lh2Hh3 (antibody, human IgG1, kappa, V domains shown)
VH: B2 VH with M48I, V68A, I70L, A72V
VL: B2 VL with I2V, Q50K
notes: human IgG1 kappa
As to B5, the Fold diff. in test [2] worked out at 14.3 fold.

B6: humanized 3A4 antibody Lh1Hh1 (antibody, human IgG1, kappa, V domains shown)
VH: B2 VH with I2V, K74T
VL: B2 VL
notes: 100% humanized frameworks; human IgG1 kappa; also called H1L1
On to B6, for which the Fold diff. in test [2] stood at 29.6 fold. Also, the “fold difference in binding affinity against the best variant H4L2” value in test [3] amounted to 4 fold.

B7: humanized 3A4 antibody Lh2Hh2 (antibody, human IgG1, kappa, V domains shown)
VH: B2 VH
VL: B2 VL with I2V, Q50K
notes: human IgG1 kappa
Consider B7, for which, in test [2], the Fold diff. was found to be 15.3 fold.

B8: humanized 3A4 antibody Lh1Hh3 (antibody, human IgG1, kappa, V domains shown)
VH: B2 VH with M48I, V68A, I70L, A72V
VL: B2 VL
notes: human IgG1 kappa
For B8, the Fold diff. in test [2] stood at 9.3 fold.

B9: humanized 3A4 antibody Lh2Hh1 (antibody, human IgG1, kappa, V domains shown)
VH: B2 VH with I2V, K74T
VL: B2 VL with I2V, Q50K
notes: human IgG1 kappa
In the case of B9, the Fold diff. in test [2] is 21.3 fold.

B10: 3G10 anti-KAAG1 antibody (antibody, V domains shown)
VH: EIQLQQSGPELVKPGASVKISCKASGYTFTDNYMNWVKQSHGKSLEWIGDINPYYGTTTYNQKFKGKATLTVDKSSRTAYMELRGLTSEDSAVYYCARDDWFDYWGQGTLVTVSA
VL: DVLMTQTPRSLSVSLGDQASISCRSSQSLLHSNGNTYLEWYLQKPGQPPKVLIYKVSNRFSGVPDRFSGSGSGTDFTLKISGVEAEDLGVYYCFQGSHVPLTFGAGTKLELK
With B10, in test [1], the Kd was greater than 200000 pM and the “fold lower affinity than 3A4” value is 20 fold.

B11: 3A4 chimeric anti-KAAG1 antibody (mouse-human chimeric IgG1) (antibody, V domains shown)
VH: QIQLVQSGPEMVKPGASVKMSCKASGYTFTDDYMSWVKQSHGKSLEWIGDINPYNGDTNYNQKFKGKAILTVDKSSSTAYMQLNSLTSEDSAVYYCARDPGAMDYWGQGTSVTVSS
VL: DVVMTQTPLSLAVSLGDQASISCRSSQSLLHSNGNTYLEWYLQKPGQSPKLLIHTVSNRFSGVPDRFSGSGSGTDFTLKISRVEAEDLGVYYCFQGSHVPLTFGAGTRLELKR
notes: also called chimeric 3A4; murine 3A4
B11: the Kd in test [4] was 57 pM; in test [8], roughly 57 pM. Besides, the binding result in test [5] and in test [7] was “no binding (tested: not given on the sheet)” throughout. The “fold less antibody required compared to 3G10” value in test [6] is roughly 10 fold.
